B1: Pyrococcus furiosus dehydroquinate synthase (enzyme, UniProt Q8U0A8 1-335, looked up)
chain: MEGIIFGDLSTLPDLLSSLSPYKVVVLTNTTLKELWLEEVLTWLKEFKPQTIVVPDGEKYKDLDTVRYIWEKLLEMGFTRRSLLIGLGGGVITDIAGFVASTYMRGTYLGLVPTTLLAQVDAAIGGKTGINFYGKNIIGTFYLPKFVLICRDFLKTLPMVEILNGLAEVVKYGILDKEVYNAIKTMNSPREIVEREDIIKKSVAVKLRIVEEDLKENGKRRVLNLGHTVGHAIEKISDYKIKHGFAVSMGLVVEAKIGEILYGFDSGKVVEILTKFGLPVKIPFDPYTTLQAMKIDKKAWYGKIVIVVPVEIGKANIEEVDEKIILQALEEAKNA
B2: EcoDHQS (Escherichia coli K-12) (protein)
chain: MERIVVTLGERSYPITIASGLFNEPASFLPLKSGEQVMLVTNETLAPLYLDKVRGVLEQAGVNVDSVILPDGEQYKSLAVLDTVFTALLQKPHGRDTTLVALGGGVVGDLTGFAAASYQRGVRFIQVPTTLLSQVDSSVGGKTAVNHPLGKNMIGAFYQPASVVVDLDCLKTLPPRELASGLAEVIKYGIILDGAFFNWLEENLDALLRLDGPAMAYCIRRCCELKAEVVAADERETGLRALLNLGHTFGHAIEAEMGYGNWLHGEAVAAGMVMAARTSERLGQFSSAETQRIITLLKRAGLPVNGPREMSAQAYLPHMLRDKKVLAGEMRLILPLAIGKSEVRSGVSHELVLNAIADCQSA
notes: recombinant, overexpressed in E. coli RB791 from plasmid of J. R. Coggins; ammonium sulfate and anion exchange; no tag mentioned

Experiments:
[1] = target: the molecule itself; assay: SEC; Superdex S200 HR 10/300; 10 mM BTP, 10 μM EDTA, 50 mM KCl, pH 6.8; partially purified protein at ≤10 mg/mL; mass estimated from a standard curve of five proteins; dimer of the enzyme
purified protein [2] = substrate: O=C(O)C(=O)C[C@@H](O)[C@H](O)[C@H](O)COP(=O)(O)O; assay: purified protein; assay type: biochemical, Pyrococcus furiosus; settings: 60 °C, pH 6.8, 50 mM BTP, 10 μM EDTA, 100 μM ZnCl2, 29 μM NAD+, 56 nM enzyme
purified protein [3] = substrate: O=C(O)C(=O)C[C@@H](O)[C@H](O)[C@H](O)COP(=O)(O)O; assay: purified protein; assay type: biochemical, Escherichia coli; settings: 25 °C, pH 6.8

| Protein | stoichiometry N [1] | Km (purified protein [2]) | kcat (purified protein [2]) | kcat/Km (purified protein [2]) | Km (purified protein [3]) | kcat (purified protein [3]) | kcat/Km (purified protein [3]) |
| --- | --- | --- | --- | --- | --- | --- | --- |
| B1 | 2 | 3.7 ± 0.2 µM | 3 ± 0.1 s⁻¹ | 800000 M⁻¹ s⁻¹ |  |  |  |
| B2 |  |  |  |  | 6.3 ± 0.2 µM | 16 ± 0.2 s⁻¹ | 2.5e+06 M⁻¹ s⁻¹ |
